This test has as its target GST coupled TRPM8 N terminal fragment (1~691) (UniProt Q7Z2W7). The experiment in a line: pull-down.

Experimental findings from publication PMC3428855 are described below.

Sequence of UniProt Q7Z2W7 (Q7Z2W7 1-691): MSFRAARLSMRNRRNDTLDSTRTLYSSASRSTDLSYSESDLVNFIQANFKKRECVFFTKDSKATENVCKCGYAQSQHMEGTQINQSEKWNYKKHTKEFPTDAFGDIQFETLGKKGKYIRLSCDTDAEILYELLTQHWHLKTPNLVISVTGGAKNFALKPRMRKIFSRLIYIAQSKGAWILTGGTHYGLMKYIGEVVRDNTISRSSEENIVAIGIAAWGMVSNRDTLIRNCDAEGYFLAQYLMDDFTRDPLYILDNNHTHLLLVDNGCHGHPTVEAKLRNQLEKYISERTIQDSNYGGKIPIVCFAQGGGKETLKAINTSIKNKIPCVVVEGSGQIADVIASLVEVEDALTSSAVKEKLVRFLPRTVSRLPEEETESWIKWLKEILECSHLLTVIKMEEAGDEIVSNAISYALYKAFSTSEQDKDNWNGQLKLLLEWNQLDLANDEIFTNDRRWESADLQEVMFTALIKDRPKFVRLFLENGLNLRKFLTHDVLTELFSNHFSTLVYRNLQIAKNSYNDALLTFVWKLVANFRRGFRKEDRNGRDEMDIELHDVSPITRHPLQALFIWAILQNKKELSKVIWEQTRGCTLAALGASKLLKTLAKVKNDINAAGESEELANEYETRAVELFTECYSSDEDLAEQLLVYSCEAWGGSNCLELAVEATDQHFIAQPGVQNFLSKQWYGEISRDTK

Take “Gαq (wild type) (from UniProt P50148 1-359) (natural protein)”: the fold Gαq bound relative to TRPM8 C terminal was 1.28 fold.
